We go through two molecules from patent US20140296146A1, “Thermostable Inhibitors of Activation of the Blood Clotting System Through Contact with Foreign Surfaces” (Synapse B.V., priority 2011, published 2014).

As a reminder, the Ki is a dissociation constant, usually derived from enzyme kinetics or from competition with a known ligand. High values mean a looser hold on the target, low ones a stronger hold on the target.

For assay [1], the target named is T1, h-FXIIa (Homo sapiens, UniProt P00748).
T1 construct: purchased Enzyme Research Laboratories FXIIa 1212A
T1 sequence (P00748 373-615 limits assumed): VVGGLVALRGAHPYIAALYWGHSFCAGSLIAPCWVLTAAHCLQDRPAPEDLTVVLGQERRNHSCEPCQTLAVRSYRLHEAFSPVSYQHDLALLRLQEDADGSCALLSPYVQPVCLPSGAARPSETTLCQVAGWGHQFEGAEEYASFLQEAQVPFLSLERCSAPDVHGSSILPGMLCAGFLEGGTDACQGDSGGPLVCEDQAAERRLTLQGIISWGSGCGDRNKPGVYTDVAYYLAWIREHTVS
T1 sequence (P00748 20-372 partner limits assumed): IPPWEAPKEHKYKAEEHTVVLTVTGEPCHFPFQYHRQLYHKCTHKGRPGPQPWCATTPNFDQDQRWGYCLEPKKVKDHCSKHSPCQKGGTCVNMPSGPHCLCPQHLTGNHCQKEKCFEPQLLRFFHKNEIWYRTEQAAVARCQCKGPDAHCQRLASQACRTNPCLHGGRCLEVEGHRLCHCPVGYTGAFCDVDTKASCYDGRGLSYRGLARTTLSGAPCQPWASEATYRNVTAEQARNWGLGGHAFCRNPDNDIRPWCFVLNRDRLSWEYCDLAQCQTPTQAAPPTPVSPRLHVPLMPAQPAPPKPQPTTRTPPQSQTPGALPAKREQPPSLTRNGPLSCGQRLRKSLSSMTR
The experiment in a line: Effect of inhibitors on hydrolysis of S2302 by h-FXIIa. Format: biochemical. As for the experimental part: Materials • S2302 From Chromogenic, lot # N0398718 SEQ0860, exp. date 2012-07. Water added on 7 Oct. […] On 3 Aug. […] Product code FXIIa 1212A, lot #FXIIa 2520PL. Bottle with 0.5 mg was reconstituted with 370 μl pure water. […] Buffer 4 mM NaAc, 150 mM NaCl (pH 5.3). Preparation was divided into 20 μl amounts and frozen at −80° C. • Hepes735 140 mM NaCl, 20 mM Hepes, 0.02% NaN3 (pH 7.35). • BSA5 Hepes735+5 mg/ml BSA. • CTI Prepared on 17 Dec. 2004, 0.141 mg/ml, i.e. 0.141/12028=11.7*10^−6 M (11.7 μM). One portion was thawed and divided into 3 parts. Part 1 was frozen at −80° C.; part 2 was kept at RT; and part 3 was incubated 30 min at 95° C. and then kept at RT.
(§1) Stock FXIIa was diluted 700× in BSA5. The inhibitor was diluted in BSA5 as indicated. Wells contained 70 μl diluted FXIIa (5 nM final), 70 μl inhibitor and 20 μl S2302 (475 or 462.5 μM final). The reaction was started after 5 min heating on the heating plate with S2302. Filters 405 nm and 490 nm reference. Found mΔA/min was multiplied by 2.14 to get the figure for a 1 cm path.
The residual activity (V) was fitted against the PTI concentration with equation:
V=(E+(sqrt(Ê2+2*E*(Ki−I)+Î2+2*I*Ki+Kî2)−E−I−Ki)/2)*kcat*S/(Km+S)
(§2) in which E=[FXIIa], Ki is the dissociation constant, I=[Inhibitor], kcat and Km are Michaelis constants and S=[S2302].

In another assay the test system is contact activation. The experiment in a line: Clotting time of blood taken on inhibitor only, without Ca2+ binding substance. The note with it: tube heated for one hour in boiling water; 10 μg/ml. As for the experimental part: Indeed STI inhibited contact activation so well that blood taken on a solution not containing sodium citrate or another substance that binds Ca^2+ ions but only STI (10 μg/ml) remained fluid for over 45 minutes, under conditions where in absence of STI it would clot in less than 5 min. […] CTI under similar circumstances, at 10 μg/ml, lost much of its activity because a clotting time of <15 min. was observed.

The target of assay [2] is T2, h-FXIIa (human, UniProt P00748 20-615).
T2 construct: also called factor XIIa
T2 sequence (looked up): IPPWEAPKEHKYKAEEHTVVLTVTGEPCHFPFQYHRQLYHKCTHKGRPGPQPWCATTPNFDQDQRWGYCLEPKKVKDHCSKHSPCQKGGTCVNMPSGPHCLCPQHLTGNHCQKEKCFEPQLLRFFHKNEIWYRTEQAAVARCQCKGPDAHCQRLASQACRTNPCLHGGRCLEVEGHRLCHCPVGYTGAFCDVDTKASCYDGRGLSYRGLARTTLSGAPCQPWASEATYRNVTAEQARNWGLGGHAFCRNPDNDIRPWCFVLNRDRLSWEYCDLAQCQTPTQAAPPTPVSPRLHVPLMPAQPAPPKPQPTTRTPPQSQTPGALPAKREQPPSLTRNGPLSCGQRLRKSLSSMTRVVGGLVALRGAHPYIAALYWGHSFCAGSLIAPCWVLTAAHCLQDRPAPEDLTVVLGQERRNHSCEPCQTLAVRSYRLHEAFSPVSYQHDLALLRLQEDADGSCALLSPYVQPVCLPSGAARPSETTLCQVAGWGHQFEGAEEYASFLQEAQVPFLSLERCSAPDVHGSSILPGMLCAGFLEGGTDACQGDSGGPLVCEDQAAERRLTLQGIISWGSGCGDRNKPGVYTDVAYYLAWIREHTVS
The experiment in a line: S2302 hydrolysis by h-FXIIa (5.01 nM); inhibitor 30 min 95° C., against -80° C. The method, then: (§3) Stock FXIIa was diluted 700× in BSA5. The inhibitor was diluted in BSA5 as indicated. Wells contained 70 μl diluted FXIIa (5 nM final), 70 μl inhibitor and 20 μl S2302 (475 or 462.5 μM final). The reaction was started after 5 min heating on the heating plate with S2302. Filters 405 nm and 490 nm reference. Found ΔmA/min was multiplied by 2.14 to get the figure for a 1 cm path.

For assay [3], the target named is T2, h-FXIIa. The experiment in a line: S2302 hydrolysis by h-FXIIa (5.01 nM); inhibitor kept at -80° C. The method, then: as §3
Assay [4] addresses T2, h-FXIIa. The experiment in a line: S2302 hydrolysis by h-FXIIa (5.01 nM); inhibitor 30 min 95° C. The method, then: as §3
In assay [5] the target is T2, h-FXIIa. The experiment in a line: S2302 hydrolysis by h-FXIIa, fit of residual activity. The method, then:
as §1, §2

Assay [6] addresses T2, h-FXIIa. The experiment in a line: S2302 hydrolysis by h-FXIIa (5 nM), fit of residual activity; dissociation constant of the complex. As for the experimental part:
as §1, §2

Assay [7] deals with T2, h-FXIIa. The experiment in a line: S2302 hydrolysis by h-FXIIa (5.01 nM); inhibitor at RT during 72 hrs. As for the experimental part: as §3

Regarding `CC[C@H](C)[C@@H]1NC(=O)[C@H](CCCNC(=N)N)NC(=O)[C@@H]2CCCN2C(=O)[C@@H](NC(=O)[C@@H](NC(=O)[C@@H](N)CCCNC(=N)N)C(C)C)CSSC[C@@H]2NC(=O)[C@H](CCC(=O)O)NC(=O)[C@H](C)NC(=O)[C@H](CC(C)C)NC(=O)[C@@H]3CSSC[C@@H](C(=O)NCC(=O)O)NC(=O)[C@H](Cc4ccc(O)cc4)NC(=O)CNC(=O)[C@H](Cc4c[nH]cn4)NC(=O)[C@H](CCC(=O)O)NC(=O)[C@H](CC(C)C)NC(=O)[C@H](CSSC[C@H](NC(=O)[C@H](CCCCN)NC(=O)[C@H](CCSC)NC(=O)[C@H](CC(C)C)NC1=O)C(=O)N[C@@H](CCCCN)C(=O)N[C@@H](CCCCN)C(=O)N[C@@H](CC(=O)O)C(=O)N[C@@H](CO)C(=O)N[C@@H](CC(=O)O)C(=O)N3)NC(=O)[C@H](C(C)C)NC2=O` [TICA1], the Ki on h-FXIIa [1] (Ki, Table 2, inhibitory activity of different polypeptides) is 25.5 nM; on h-FXIIa [1] (ki F.XIIa (ng/ml), After heating), 26 nM; on h-FXIIa [1] (ki F.XIIa (ng/ml), Before heating), 25.4 nM.

B1: Corn trypsin inhibitor (other, UniProt P01088 29-138, looked up)
chain: SAGTSCVPGWAIPHNPLPSCRWYVTSRTCGIGPRLPWPELKRRCCRELADIPAYCRCTALSILMDGAIPPGPDAQLEGRLEDLPGCPREVQRGFAATLVTEAECNLATIS
notes: also called CTI
Consider B1, for which, in the assay with contact activation, the “clotting time of blood after sterilization of the tube containing inhibitor” value is reported as less than 15 min. The “Res. Act. (%)” value with h-FXIIa [2] stood at 70%. Further, the Ki worked out at 3.59 nM with h-FXIIa [3]; 5.1 nM in the assay with h-FXIIa [4]; 2.9 nM with h-FXIIa [5]; 2.9 nM in the assay with h-FXIIa [6]; 4.19 nM in the assay with h-FXIIa [7].
